Experimental data as given in US20250388666A1 (BRIGHAM AND WOMEN S HOSPITAL, published 2025).

T1: human GST-CEACAM1 (human, UniProt P13688 35-141, limits assumed)
T1 construct: printed both as GST-CEACAM1 and CEACAM1-GST; also called human CEACAM1-GST protein; hCEACAM1-GST; not shown: GST tag
T1 sequence: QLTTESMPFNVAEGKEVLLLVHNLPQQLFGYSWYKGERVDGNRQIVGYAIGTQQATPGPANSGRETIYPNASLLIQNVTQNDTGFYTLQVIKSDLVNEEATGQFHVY

T2: CEACAM3 (Sino Biological) (human, UniProt P40198 35-155, limits assumed)
T2 construct: also called hCEACAM3
T2 sequence (looked up): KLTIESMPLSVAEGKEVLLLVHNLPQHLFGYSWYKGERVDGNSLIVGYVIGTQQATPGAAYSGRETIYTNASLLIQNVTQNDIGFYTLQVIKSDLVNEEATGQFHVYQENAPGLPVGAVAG

T3: CEACAM5 (Sino Biological) (human, UniProt P06731 35-685)
T3 construct: also called hCEACAM5
T3 sequence (looked up): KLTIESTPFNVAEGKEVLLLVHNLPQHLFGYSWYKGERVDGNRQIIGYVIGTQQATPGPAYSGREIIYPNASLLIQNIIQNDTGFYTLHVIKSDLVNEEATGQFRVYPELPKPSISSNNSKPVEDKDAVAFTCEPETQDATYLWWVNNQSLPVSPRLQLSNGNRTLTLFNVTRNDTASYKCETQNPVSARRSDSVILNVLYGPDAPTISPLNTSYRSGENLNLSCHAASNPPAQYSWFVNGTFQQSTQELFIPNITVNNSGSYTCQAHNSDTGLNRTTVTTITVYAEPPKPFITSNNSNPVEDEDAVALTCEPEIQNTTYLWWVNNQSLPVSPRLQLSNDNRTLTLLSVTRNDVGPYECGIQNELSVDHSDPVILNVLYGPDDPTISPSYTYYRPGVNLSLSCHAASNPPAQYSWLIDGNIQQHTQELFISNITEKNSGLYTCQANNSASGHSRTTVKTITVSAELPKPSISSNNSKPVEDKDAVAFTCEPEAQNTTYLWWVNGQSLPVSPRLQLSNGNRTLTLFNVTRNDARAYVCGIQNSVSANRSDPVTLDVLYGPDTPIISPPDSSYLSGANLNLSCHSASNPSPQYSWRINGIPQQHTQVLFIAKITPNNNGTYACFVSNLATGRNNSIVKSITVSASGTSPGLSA

T4: CEACAM6 (Sino Biological) (human, UniProt P40199 35-320)
T4 construct: also called hCEACAM6
T4 sequence (looked up): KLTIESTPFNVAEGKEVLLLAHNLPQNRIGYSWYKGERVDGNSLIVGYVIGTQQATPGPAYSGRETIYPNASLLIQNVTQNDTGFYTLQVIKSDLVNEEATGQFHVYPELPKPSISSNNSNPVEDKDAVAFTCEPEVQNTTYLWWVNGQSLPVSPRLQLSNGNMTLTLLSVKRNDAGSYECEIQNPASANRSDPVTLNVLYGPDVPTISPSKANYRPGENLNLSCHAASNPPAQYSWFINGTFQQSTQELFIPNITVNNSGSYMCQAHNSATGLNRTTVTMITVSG


What was measured:
human GST-CEACAM1 = biological target: T1, human GST-CEACAM1; assay: competition ELISA vs murine parent antibody
Outline: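 Competition ELISA on plates coated overnight at 4° C with 1 μg/ml GST-CEACAM1, blocked with 2% BSA/PBS. Each antibody variant competed against the murine parental antibody for antigen binding, benchmarked against the chimeric VH0/Vκ0 antibody run on every plate.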

[1] = biological target: T2, CEACAM3 (Sino Biological); assay: binding ELISA on plate-coated CEACAM (0.5 µg/mL); antibody at 1.67, 0.062 and 0.0069 µg/mL; signal as % of parent IgG on CEACAM1 at 1.67 µg/mL on the same plate
[2] = biological target: T3, CEACAM5 (Sino Biological); assay: as above
[3] = biological target: T4, CEACAM6 (Sino Biological); assay: as above

average relative IC50 (normalized to chimeric antibody) (human GST-CEACAM1) | binding result [1] | binding result [2] | binding result [3] | Binder
1 ratio |  |  |  | chimeric parental antibody VH0/Vκ0 (antibody, IgG4, V domains shown, IgG4 (S241P), kappa; also called Chimera; chimeric antibody) VH: EVQLVESGGGFVKPGGSLKLSCAASGFSFSDYYLYWVRQTPEKRLEWVATISVGGGNTSYPDSVKGRFTISRDNAKNNLYLQMSSLKSEDTAMYYCTRGLYYGPAWFAYWGQGTLVTVSA VL: not shown
 | no binding (tested: 1.67 µg/mL) | no binding (tested: 1.67 µg/mL) | no binding (tested: 1.67 µg/mL) | VH2 N56Q/Vκ4 S27(f)A IgG (antibody, V domains shown, IgG4 S241P, kappa; also called Parent; Parent IgG) VH: EVQLLESGGGLVQPGGSLRLSCAASGFSFSDYYLYWVRQAPGKGLEWVATISVGGGQTSYADSVKGRFTISRDNSKNTLYLQMNSLRAEDTAMYYCTRGLYYGPAWFAYWGQGTLVTVSS VL: not shown
